From patent publication US20150004189A1 (published 2015)

Legend:
[1] = target: HLA DQ molecule DQB1*0503 (human); assay: inhibition of radiolabeled peptide binding to purified HLA class II
[2] = target: HLA DQ molecule DQB1*0202 (human); assay: as above
[3] = target: HLA DQ molecule DQB1*0502 (human); assay: as above
[4] = target: HLA-DQ molecule DQB1*0502 (human); assay: inhibition of radiolabeled peptide binding to purified HLA-DQ
[5] = target: HLA-DQ molecule DQB1*0503 (human); assay: as above
[6] = target: HLA-DQ molecule DQB1*0602 (human); assay: as above
[7] = target: HLA-DQ molecule DQB1*0202 (human); assay: as above
[8] = target: HLA DQ molecule DQB1*0602 (human); assay: inhibition of radiolabeled peptide binding to purified HLA class II
HLA-DP DPB1*0401 = target: T1, HLA-DP DPB1*0401 (human); assay: inhibition of radiolabeled peptide binding to purified HLA-DP
T1 chain 1: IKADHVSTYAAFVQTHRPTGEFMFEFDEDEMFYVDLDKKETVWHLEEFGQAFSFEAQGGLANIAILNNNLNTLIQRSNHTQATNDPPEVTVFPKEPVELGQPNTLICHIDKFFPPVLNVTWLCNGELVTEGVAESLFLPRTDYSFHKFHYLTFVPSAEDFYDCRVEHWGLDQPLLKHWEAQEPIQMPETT
T1 chain 2: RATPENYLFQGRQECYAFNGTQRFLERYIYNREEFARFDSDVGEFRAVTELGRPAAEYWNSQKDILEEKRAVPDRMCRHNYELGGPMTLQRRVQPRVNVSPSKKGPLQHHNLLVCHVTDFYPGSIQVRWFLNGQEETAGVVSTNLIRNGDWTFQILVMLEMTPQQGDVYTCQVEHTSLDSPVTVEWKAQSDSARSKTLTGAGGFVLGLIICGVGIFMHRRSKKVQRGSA

[9] = target: HLA DQ molecule DQB1*0502 (human); assay: inhibition of radiolabeled peptide binding to purified HLA class II; remark: listed apart in the source
[10] = target: HLA DQ molecule DQB1*0602 (human); assay: as above; remark: listed apart in the source
[11] = target: HLA DQ molecule DQB1*0503 (human); assay: as above; remark: listed apart in the source

Binder DAYVATLTEALRVIA [Lol p 5 1 peptide, position 151, DAYVATLTEALRVIA (Peptide ID 3324.1167)] has an IC50 [1] of 50 µM, an IC50 [2] of 1.8 µM and an IC50 [3] of 50 µM.

For SDAKTLVLNIKYTRP [Lol p 3 peptide, position 11, SDAKTLVLNIKYTRP (Peptide ID 3324.1142)], the IC50 [1] was 33.9 µM, the IC50 [2] was 25.7 µM and the IC50 [3] was 50 µM.

With NMNIKLKMPLYVAGH [Cup s 1 (96-110) peptide NMNIKLKMPLYVAGH] the IC50 [4] was 20.8 µM, the IC50 [5] was 11.7 µM and the IC50 [6] was 14.5 µM. The IC50 [7] was 50 µM.

Binder EDTNIYNSNEAFKVE [Cup a 1 (316-330) peptide EDTNIYNSNEAFKVE] has an IC50 [4] of 2.42 µM, an IC50 [6] of 8.29 µM and an IC50 [7] of 7.54 µM.

Work on GAYETYKFIPSLEAA [Pha a 5 peptide, position 201, GAYETYKFIPSLEAA (Peptide ID 3324.1433)] yielded an IC50 [1] of 0.358 µM and an IC50 [8] of 0.846 µM.

For DIYNYMEPYVSKVDP [Dac g 4 peptide 1-15 DIYNYMEPYVSKVDP (Peptide ID 3324.0663)], the IC50 (HLA-DP DPB1*0401) was 23.4 µM.

EKALWIIFSQNMNIK [Cup s 1 peptide 86-100 EKALWIIFSQNMNIK (Peptide ID 3324.0615)] showed an IC50 (HLA-DP DPB1*0401) of 1.54 µM.

For PARLFKAFVLDSDNL [Que a 1 (16-30) peptide PARLFKAFVLDSDNL], the IC50 [4] was 0.0079 µM, the IC50 [5] was 0.161 µM and the IC50 [6] was 2.6 µM. The IC50 [7] was 0.31 µM.

GSDEKNLALSIKYNK [Dac g 2 (11-25) peptide GSDEKNLALSIKYNK] showed an IC50 [5] of 50 µM, an IC50 [6] of 0.13 µM and an IC50 [7] of 7.2 µM.

For ASVIPPARLFKAFVL [Que a 1 peptide 11-25 ASVIPPARLFKAFVL (Peptide ID 3324.1587)], the IC50 (HLA-DP DPB1*0401) was 0.917 µM.

With DEYVEQVAQYKALPV [Fel d 1 1 (41-55) peptide DEYVEQVAQYKALPV, Peptide ID 3324.1049] the IC50 [9] was 0.337 µM and the IC50 [10] was 0.14 µM.

MRNVFDDVVPADFKV [Lol p 2 peptide, position 76, MRNVFDDVVPADFKV (Peptide ID 3337.0030)] showed an IC50 [1] of 0.347 µM and an IC50 [8] of 39.5 µM.

Work on FSGVAATESAYLAYR [Der f 1 (136-150) peptide FSGVAATESAYLAYR, Peptide ID 3324.0666] yielded an IC50 [9] of 1.21 µM, an IC50 [10] of 2.02 µM and an IC50 [11] of 4.19 µM.

For PARLFKAFVLDSDNL [Que a 1 peptide 16-30 PARLFKAFVLDSDNL (Peptide ID 3324.1585)], the IC50 (HLA-DP DPB1*0401) was 0.052 µM.

Work on KALWIIFSQNMNIKL [Cup a 1 peptide 66-80 KALWIIFSQNMNIKL (Peptide ID 3324.0604)] yielded an IC50 (HLA-DP DPB1*0401) of 1.73 µM.

Work on RYANPIAFFRKEPLK [Lol p 11 peptide 111-125 RYANPIAFFRKEPLK (Peptide ID 3324.1138)] yielded an IC50 (HLA-DP DPB1*0401) of 2.06 µM.

EKALWIIFSQNMNIK [Cup s 1 (86-100) peptide EKALWIIFSQNMNIK] was tested, and the IC50 [4] was 13 µM, the IC50 [5] was 1.93 µM and the IC50 [7] was 5.56 µM.

Work on ASEVFKAVEAYLVAH [Que a 1 (141-155) peptide ASEVFKAVEAYLVAH] yielded an IC50 [4] of 5.31 µM, an IC50 [5] of 2.04 µM and an IC50 [7] of 0.953 µM.

With IKSDKPLKGPFNFRF [Lol p 2 peptide 56-70 IKSDKPLKGPFNFRF (Peptide ID 3324.1140)] the IC50 (HLA-DP DPB1*0401) was 12.3 µM.

DGVWEIKSDKPLKGP [Lol p 2 peptide 51-65 DGVWEIKSDKPLKGP (Peptide ID 3324.1139)] gave an IC50 (HLA-DP DPB1*0401) of 5.21 µM.

For NALSVLDKIYTSPLC [Fel d 1 1 (78-92) peptide NALSVLDKIYTSPLC, Peptide ID 3324.1050], the IC50 [10] was 1 µM and the IC50 [11] was 5.83 µM.

In the case of GSCWAFSGVAATESA [Der f 1 (131-145) peptide GSCWAFSGVAATESA, Peptide ID 3324.0670], the IC50 [9] is reported as 9.32 µM, the IC50 [10] is reported as 1.33 µM and the IC50 [11] is reported as 7.93 µM.

Work on DGVWEIKSDKPLKGP [Lol p 2 peptide, position 51, DGVWEIKSDKPLKGP (Peptide ID 3324.1139)] yielded an IC50 [2] of 0.53 µM and an IC50 [8] of 26.6 µM.

Binder LWEVKSAKPLTGPMN [Lol p 3 peptide, position 51, LWEVKSAKPLTGPMN (Peptide ID 3337.0031)] has an IC50 [2] of 2.44 µM and an IC50 [8] of 3.95 µM.
